# Measurements reported in USRE41461E1, “Purification, composition and specificity of Heparinase I, II, and III from Flavobacterium heparinum” (Massachusetts Institute of Technology, priority 1992, dated 2010).
# B1: Heparin lyase I: heparin lyase I (heparinase, EC 4.2.2.7) purified to homogeneity from Flavobacterium heparinum (protein, UniProt Q05819 22-384, looked up)
# Heparin lyase I: QQKKSGNIPYRVNVQADSAKQKAIIDNKWVAVGINKPYALQYDDKLRFNGKPSYRFELKAEDNSLEGYAAGETKGRTELSYSYATTNDFKKFPPSVYQNAQKLKTVYHYGKGICEQGSSRSYTFSVYIPSSFPDNATTIFAQWHGAPSRTLVATPEGEIKTLSIEEFLALYDRMIFKKNIAHDKVEKKDKDGKITYVAGKPNGWKVEQGGYPTLAFGFSKGYFYIKANSDRQWLTDKADRNNANPENSEVMKPYSSEYKTSTIAYKMPFAQFPKDCWITFDVAIDWTKYGKEANTILKPGKLDVMMTYTKNKKPQKAHIVNQQEILIGRNDDDGYYFKFGIYRVGNSTVPVTYNLSGYSETAR
# What was measured:
# [1] = Heparin lyase activity assay (change of absorbance at 232 nm), heparin as substrate; format: biochemical, porcine
# Description: (§1) The spectrophotometer was adjusted to the optimum temperature of the particular lyase being assayed. […] A measured quantity of lyase was added, bringing the final volume to 400 μl and the cuvette was gently mixed. The microcuvette was then immediately returned to the spectrophotometer and the change of absorbance at 232 nm was measured at 10 seconds intervals over 3 min. […] The specific activity was then calculated by dividing the micromoles of product produced per minute by the milligrams of protein in the cuvette. […] G., and Linhardt, R. J. (1989) Carbohydr. Res. 190, 219-233. Protein concentration was measured by the Bradford assay, Bradford, M. M. (1976) Anal. Biochem. 72, 248-254, based on a bovine serum albumin standard curve. […] The activities of each lyase (I acting on heparin, II acting on both heparin and heparan sulfate, and III acting on heparan sulfate) were then determined at different pH values. The buffer giving optimum activity for each heparin lyase was selected by testing buffers with buffering capacity near the pH optima calculated in the previous experiments. These buffers were: Tris-HCl, sodium phosphate, HEPES, MOPS, TES, and BTP-CHl. […] The heparin lyase assay solutions were made by diluting enzyme in 50 mM sodium phosphate buffer adjusted to the appropriate pH as previously described. Heparin lyase activity was determined in each buffer. Activity was assayed both immediately after addition to each buffer and following incubation for 24 h at 37° C. The salt concentration for optimum activity was investigated. Sodium chloride, potassium chloride, and sodium and potassium acetate were used to differentiate between ionic strength and specific ion affects. […] The temperature was adjusted in a temperature-regulated spectrophotometer and equilibrated for 10 min before the assay was started. Michaelis-Menten constants were determined using the optimized conditions. The final absorbance value for total depolymerization was divided by 20 to find a value that represented 5% reaction completion. The purified lyase preparations were diluted so that 5% of total depolymerization would be reached only at the end of a 3-min assay. The reaction velocities at specific molar concentrations for each lyase and their substrates were used for kinetic analysis using EZ-FIT hyperbolic curve-fitting program of […]. (1988) Anal. Biochem. 174, 437-447). Substrate solutions were prepared from 50 mg/ml heparin and 40 mg/ml for heparan sulfate stock solutions. […] The amount of purified lyase used was sufficient for complete depolymerization of heparin or heparan sulfate substrates within 30 min. The initial rate of depolymerization of each polysaccharide was measured, the reaction was then continued for 24 h, and the final level of polysaccharide depolymerization was assessed by measuring the final absorbance at 232 nm and expressed as percent activity.
# [2] = Heparin lyase activity assay (change of absorbance at 232 nm), heparan sulfate as substrate; format: biochemical; conditions: final level of depolymerization, 24 h
# Description: as §1
# [3] = Heparin lyase activity: effect of divalent metals and added salt, substrate specificity (each lyase on its substrates); format: biochemical
# Description: The spectrophotometer was adjusted to the optimum temperature of the particular lyase being assayed. A 700 μl quartz microcuvette containing 400 μg of substrate in 50 mM sodium phosphate buffer (containing 100 mM sodium chloride for heparin lyase I) was thermally equilibrated. A measured quantity of lyase was added, bringing the final volume to 400 μl and the cuvette was gently mixed. The microcuvette was then immediately returned to the spectrophotometer and the change of absorbance at 232 nm was measured at 10 seconds intervals over 3 min. The activity was measured from the change of absorbance/unit time using an extinction coefficient of 3800 M^−1 for products. The specific activity was then calculated by dividing the micromoles of product produced per minute by the milligrams of protein in the cuvette. The molecular weights used for heparin, heparan sulfate, and the chondroitin sulfates were 14,000, 20,000 and 25,000, respectively, Rice, K. G., and Linhardt, R. J. (1989) Carbohydr. Res. 190, 219-233. Protein concentration was measured by the Bradford assay, Bradford, M. M. (1976) Anal. Biochem. 72, 248-254, based on a bovine serum albumin standard curve.
# BTP-HCl buffer (50 mM) was prepared containing either 10 mM calcium chloride, 10 μM or 1 mM copper (II) chloride, 10 μM and 1 mM mercury (II) chloride, and 1 mM zinc (II) chloride. Each solution was adjusted to the optimum pH for the lyase being tested, and the activity of the heparin lyases was measured in the presence and absence of divalent metals.
# The salt concentration for optimum activity was investigated. Sodium chloride, potassium chloride, and sodium and potassium acetate were used to differentiate between ionic strength and specific ion affects. Added salt concentrations varied between 0 and 500 mM and were prepared in 50 mM sodium phosphate buffer after which the pH was adjusted to each enzyme's optimum and the heparin lyase activity was measured.
# Each heparin lyase was added to a solution of complex polysaccharides (1 mg/ml) under optimized assay conditions, and the reaction was monitored at 232 nm for 30 min. The amount of purified lyase used was sufficient for complete depolymerization of heparin or heparan sulfate substrates within 30 min. The initial rate of depolymerization of each polysaccharide was measured, the reaction was then continued for 24 h, and the final level of polysaccharide depolymerization was assessed by measuring the final absorbance at 232 nm and expressed as percent activity.
# [4] = Isoelectric focusing on agarose gel; format: physicochemical; conditions: agarose IEF
# Description: IEF gel electrophoresis was run on pre-cast agarose gels (85×100 mm). Two electrode wicks were wetted with 1M phosphoric acid (anolyte) and 1M sodium hydroxide (catholyte). Electrophoresis was at 5 watts for 5 min, then at 10 watts for 1 h until the voltage was constant at 1200 V. The gel was immediately fixed in 15% aqueous trichloroacetic acid, blotted and rinsed with water, dried overnight, stained by using Coomassie G-250, and destained.
# [5] = Temperature stability of lyase activity; format: physicochemical; conditions: 30° C., protein 650 ng/ml
# Description: Lyase assay stock solutions were prepared in the appropriate buffer and placed in water baths at the following temperatures: heparin lyase I at 30° C., heparin lyase II at 35° C., and heparin lyase III at both 35° and 40° C. […]
# [6] = Activity remaining after incubation in buffers for 24 h at 37° C.; format: physicochemical; conditions: each of six buffers
# Description: The buffer giving optimum activity for each heparin lyase was selected by testing buffers with buffering capacity near the pH optima calculated in the previous experiments. These buffers were: Tris-HCl, sodium phosphate, HEPES, MOPS, TES, and BTP-CHl. Each buffer was prepared at 50 mM, and its pH was adjusted with hydrochloric acid or sodium hydroxide to 6.9 for heparin lyase II acting on heparin, 7.15 for heparin lyase I, 7.3 for heparin lyase II acting on heparan sulfate, and 7.6 for heparin lyase III. The heparin lyase assay solutions were made by diluting enzyme in 50 mM sodium phosphate buffer adjusted to the appropriate pH as previously described. Heparin lyase activity was determined in each buffer. Activity was assayed both immediately after addition to each buffer and following incubation for 24 h at 37° C.
# [7] = Stability toward storage, freeze thawing and lyophilization; format: physicochemical; conditions: for activity retained: absence of excipient
# Description: […] […] These lyase solutions were then divided into 3 equal aliquots, and one of each was subjected to either freeze thawing, lyophilization, or retained as a control in an ice bath. The activities of heparin lyases I-III were determined in the presence and absence of excipients after: 1) brief storage at 4° C.; 2) freezing at −70° C. and thawing; and 3) −70° C. freezing, lyophilization, and reconstituting with an equal volume of cold water.
# [8] = cited from earlier work
molecule,measurement,setting,value
B1,added salt concentration (ionic strength) for optimum activity,[1]; 0-500 mM salt in 50 mM sodium phosphate buffer,100 mM
same,Unit/mg (specific activity),"[1]; final GPC-HPLC purification step, acting on heparin",130 Unit/mg
same,average number of sites acted at in the heparin polymer,"[1]; final level of depolymerization, 24 h",7 sites
same,"initial activity in six buffers (Tris-HCl, sodium phosphate, HEPES, MOPS, TES, BTP-HCl)","[1]; heparin, 50 mM buffer at optimum pH","reduced activity in MOPS, TES, and HEPES"
same,temperature for maximum activity,"[1]; heparin, 50 mM sodium phosphate at optimum pH, 15-55° C.",35 °C
same,Km,"[1]; heparin, I: 30° C., pH 7.15, 100 mM sodium chloride, II: 35° C., pH 7.3, value ± standard error, read-out: Km(app)",17.8 ± 1.5 µM
same,Vmax,"[1]; heparin, optimized conditions, value ± standard error",219 ± 3.48 μmol/min mg protein
same,pH optimum for activity,[1]; on heparin,7.15
same,specific activity,"[1]; purified lyase, toward heparin",130 units/mg
same,average number of sites acted at in the heparan sulfate polymer,[2],5 sites
same,substrates acted on,[3],act on both heparin and heparan sulfate
same,effect of mercury on activity,[3]; 10 μM mercury (II) chloride,markedly reduced
same,effect of copper on activity,[3]; 1 mM copper (II) chloride,markedly reduced
same,effect of mercury on activity,[3]; 1 mM mercury (II) chloride,markedly reduced
same,effect of zinc on activity,[3]; 1 mM zinc (II) chloride,slightly reduced
same,effect of calcium on activity (increase),"[3]; 10 mM calcium chloride, 50 mM BTP-HCl",30%
same,effect of added salt on activity,"[3]; increasing salt concentration, 0-500 mM",increased activity
same,pI (isoelectric point),[4],9.1-9.2
same,time in which 80% of activity was lost,[5],5 h
same,"activity after incubation, % of initial value",[6],1-20%
same,activity retained,[7]; after a single freeze-thawing,45%
same,activity retained,[7]; after freeze-drying,25%
same,activity retained,[7]; stored at 4° C.,50%
same,retention of activity,[7]; addition of 2.0 mg/ml BSA,greater than 85%
same,retention of activity,[7]; addition of 5% lactose,40-80%
same,pH optimum (reported),"[8]; Yang et al. (1985), Linker and co-workers, assay times up to 6 h",6.5
same,Vmax (reported),[8]; literature,19.7 μmol/min/mg protein
